Measured values from the supplement of paper PMC12764529.
± gives the half width of the 95% confidence interval.

Assays:
[1] = folding stability dG unfold from trypsin proteolysis; higher = more stable
How it was run: (§1)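 Designed mini-proteins with no cysteine and under 80 residues were kept only if AlphaFold2 dimer inter-PAE was above 15. In a PA-tagged cDNA display construct, they were digested with trypsin and chymotrypsin and then sequenced. K50 was inferred by Bayesian fitting of counts, and unfolding free energy was derived per protease or combined against a sequence-predicted unfolded-state K50 and a shared folded-state K50.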

[2] = folding stability dG unfold from chymotrypsin proteolysis; higher = more stable
How it was run: as §1

[3] = folding stability dG unfold (combined trypsin and chymotrypsin); higher = more stable
How it was run: as §1

Sequence	folding stability dG unfold [1] [kJ/mol]	folding stability dG unfold [2] [kJ/mol]	folding stability dG unfold [3] [kJ/mol]
SAGGSAGGSPNTVPIPIRVEWYDPKDGEPKDEHPFNINFKTEEEAEDIIDNIAPDHPGMKIEISAGGSAGGS [r12_1043_TrROS]	0.974 ± 0.402	-1.35 ± 0.46	0.0557 ± 0.586
SAGGSAGGSPPDFVIQPEVEHTRDPENGKHEATVKIEIMDGRPIEIPFKSPEDAEDAIKELINSAGGSAGGS [r12_389_TrROS]	4.76 ± 0.331	1.6 ± 0.41	3.47 ± 0.544
SAGGSAGGSPPNKEVYIRIKIEYDGPNGQPIMEFWIPADEITPSFIEELMNRGGIKVDIELIPSAGGSAGGS [r12_398_TrROS]	11.1 ± 0.356	12.5 ± 0.134	11.9 ± 0.418
SAGGSAGGSPRVLEIRRYPLPDGGYLLEVRFEKETLFIPVPENVPPHSLEEIEIPLLLGEKPESAGGSAGGS [r12_673_TrMRF]	6.25 ± 0.092	6.69 ± 0.113	6.68 ± 0.184
SAGGSAGGSPSEEARKKGGLTLTITLRYPDGSTVTITYPVSTPLTIPEEFAKNPPKIESIELSSAGGSAGGS [r12_161_JUSTAS]	5.13 ± 0.0795	5.77 ± 0.213	5.62 ± 0.305
SAGGSAGGSPSVLDQVKRMIQDRIQERFGLPPGYTVQVTIDVEIDDGGIRIKKIKAEIQPPDNSAGGSAGGS [r12_481_TrROS]	8.87 ± 0.397	10.1 ± 0.226	9.94 ± 0.711
SAGGSAGGSPTYTIDVEKYPDGYYFLKIWMPGHNRKIEHPIPPDNPDKIDEITITPNGKIKIDSAGGSAGGS [r20_11_TrROS]	0.675 ± 0.544	1.29 ± 1	1.1 ± 0.711
SAGGSAGGSPVFESPEQAKAFLDNVPADSTVLIAVKNPETGEWQLFVVKVPPKRPVGYPGDKDSAGGSAGGS [r12_393_TrMRF]	4.53 ± 0.272	7.47 ± 0.301	6.53 ± 0.356
SAGGSAGGSPVIAVRVKRIEVTYDAATGRLTVRIEVEVDGKTYTITVPPGAEIKPGDTLLIEPSAGGSAGGS [r20_49_TrROS_Hall]	17.7 ± 0.41	18.55 ± 0.159	18.3 ± 0.172
SAGGSAGGSPVVTVENVTRPSDYYTYTFKLPDGTVITLDAKSEEEAREKAKELGLENLNFKTEESAGGSAGG [r6_601_JUSTAS]	13.2 ± 0.795	16.2 ± 0.544	15.9 ± 0.586
SAGGSAGGSPYTIMYPIPGDTVEEVKDIAKEIMEHFPNFKITVSVEPPKDGQYWVTIELEMPDSAGGSAGGS [r12_425_TrROS]	7.82 ± 0.46	9.33 ± 0.205	8.76 ± 0.628
SAGGSAGGSRIIFRIPPEFRENMPIEEIVEEFLPPGMPVEIEWERTPDPWYVTVDIEIPPGQLSAGGSAGGS [r12_716_TrROS]	1.52 ± 0.669	1.36 ± 1.38	1.4 ± 1.13
SAGGSAGGSRKTILFRFPDGMMIKISLEENPNGNKRVRVTVYNPDNGKKRRMPADELPPNAKISAGGSAGGS [r12_797_TrROS]	4.77 ± 0.331	13.1 ± 0.377	11.1 ± 0.628
SAGGSAGGSRLGLEEFERIAREIAEELGISDLVAEVEELEDDYALLTIYNPETGEKLEILVPGSAGGSAGGS [r12_1000_TrMRF]	4.72 ± 0.222	3.76 ± 0.105	4.49 ± 0.377
SAGGSAGGSSAPPGEVRTEAVSLTVRSTVPITYPNSPTTTLSLTTTLTVTLTREVSPVRPEVESAGGSAGGS [r20_14_JUSTAS]	12.1 ± 0.879	16.1 ± 0.356	14 ± 0.92
SAGGSAGGSSIGRTEYIPEENLIVREEPETGLTIITKKPPNGPNIVYTIEPETGEKTVEESLISAGGSAGGS [r12_55_JUSTAS]	1.86 ± 0.28	-0.395 ± 0.92	1.22 ± 0.837
SAGGSAGGSSLLVLRELADGGVALHLIDVEPDEPVGVETVLDEFRELHPDTPPLPVLILRPDPSAGGSAGGS [r12_262_TrMRF]	1.05 ± 0.13	-0.533 ± 0.586	0.481 ± 0.305
SAGGSAGGSSMKVEVTVEPVDPARGLYRVTITLYDPNSDTPLKTVPVLAESPEEIEAAILELLSAGGSAGGS [r12_26_JUSTAS]	10.7 ± 0.46	12.2 ± 0.209	11.2 ± 0.502

Sequence	folding stability dG unfold [1] [kJ/mol]	folding stability dG unfold [2] [kJ/mol]	folding stability dG unfold [3] [kJ/mol]
SAGGSAGGSSMLTITKTYTLPPEEIKKIEGKPGVLKVEPFVTPEGKLVVKVEIRLEIGPEKLLLSAGGSAGG [r6_155_JUSTAS]	3.09 ± 0.46	4.65 ± 0.92	3.83 ± 0.46
SAGGSAGGSSMPFLNPDGHPAVLVEVDGSTGSLSVELRGPDGRPVLQVSVSVSGPATVTVRVGSAGGSAGGS [r12_960_JUSTAS]	11.5 ± 0.46	10.7 ± 0.36	10.9 ± 0.331
SAGGSAGGSSMSSTVEKEPDDVLIISTKVFFDTDTYSTLTTIVEVKPPLDPSNPELLARALGLLSAGGSAGG [r6_293_JUSTAS]	4.61 ± 0.109	6.22 ± 0.163	5.45 ± 0.264
SAGGSAGGSSPDWSVKKSTVTVTITFPEEKYFEPETKKEVAKRPVITIEIEIEVVETLPASLISAGGSAGGS [r12_600_JUSTAS]	6.9 ± 0.28	6.04 ± 0.402	6.83 ± 0.795
SAGGSAGGSSPPLEILDPVSATLPDGGTLTVAKAAGSYYLVTTTTYDPATGTATSTTTVVPLESAGGSAGGS [r20_15_JUSTAS]	0.0688 ± 0.368	3.46 ± 0.318	2.21 ± 0.272
SAGGSAGGSSPSTSSERRIELPGGEEAEVFFYPSSGKILVRFPDREVEYYVEDDGKIVKKDPLSAGGSAGGS [r12_47_JUSTAS]	2 ± 0.264	0.22 ± 0.879	1.32 ± 0.544
SAGGSAGGSSSATLAADETATLRFRVTLTFGSGVRSGTADLSGSVSATVEVDVEIEVRNLADDSAGGSAGGS [r12_668_TrMRF]	13.9 ± 0.234	19.3 ± 0.343	17.7 ± 0.293
SAGGSAGGSSSMVVIEKEFPDLTPEEVEKLAKEIEEKNPELGKVEVKFKPKKKPKPPLTPEAKKSAGGSAGG [r6_825_JUSTAS]	-2.81 ± 0.879	5.41 ± 0.151	3.67 ± 0.46
SAGGSAGGSSVSVSFPSSVTKVEPELNDPNLTTFFESPGLVIKVTVVPGTGKVIIEKKPLSELSAGGSAGGS [r12_858_JUSTAS]	3.59 ± 0.0962	-2.78 ± 0.544	1.43 ± 0.222
SAGGSAGGSSVTRLIYLEDGTVLVVKLTPKPLVLPDGKPAFVLGFEVVEIRPVKDPKEALKALSAGGSAGGS [r12_915_TrMRF]	7.59 ± 0.163	5.45 ± 0.339	6.75 ± 0.297
SAGGSAGGSSYTTSTATDPNADVTTTTTTYPDSIVTPVWDPRTGKVVETVTTTPDGTTTTVAASAGGSAGGS [r12_563_JUSTAS]	2.27 ± 0.285	0.11 ± 0.711	1.21 ± 0.586
SAGGSAGGSTALVYKNGVTVTFPVFFPDTAPAVVTLSIPSPEEAAAAVAALRAAGHAVTVEPLASAGGSAGG [r6_872_JUSTAS]	4.02 ± 0.0502	6.2 ± 0.201	5.4 ± 0.13
SAGGSAGGSTIMFKVDSPDELIDKIKIPPGFRVEIMQTPDRYYVMIRPPPSPEQMAKREKNNGSAGGSAGGS [r12_274_TrROS]	14 ± 1.76	13.2 ± 0.962	13.6 ± 1.72
SAGGSAGGSTIRIRVKTREEAERLAKLIPGARITYDEETKEFYLEIRLPPAPPPSLEELKAALSAGGSAGGS [r20_191_TrROS_Hall]	15.2 ± 0.259	8.22 ± 0.159	11.9 ± 0.243
SAGGSAGGSTITITTVIEKDGELYVIEAKIEVTEVYYDKKTKKKVKVKVKIEIKIEKVPLEDLSAGGSAGGS [r12_809_TrROS_Hall]	12.4 ± 2.34	13.7 ± 0.962	12.9 ± 1.88
SAGGSAGGSTPELLKKLPPGAKVEVETRLVTNEDGSVYKVVKIKIVDKKTNKTLELELVVKLPSAGGSAGGS [r12_892_TrROS_Hall]	8.91 ± 0.172	6.92 ± 0.218	8.18 ± 0.293
SAGGSAGGSTPMSVEEIVERIKEEKRKENPNETVEIEFTAELKGGPEGAPEGIYPVKIKVPPGKSAGGSAGG [r6_79_JUSTAS]	0.209 ± 0.213	2.05 ± 0.297	0.87 ± 0.502
SAGGSAGGSTVEEIADFFKQQGFTDAEINVMPPPNGRRYVTVRFEMKEPNGNKHKMNFSIWIPSAGGSAGGS [r12_246_TrROS]	10.6 ± 0.669	8.34 ± 0.669	9.67 ± 1.42
